Data on one molecule can be found in PMC3025549.

The experiment deals with recombinant mjRNAP (RNA polymerase of M. jannaschii), wild type (M. jannaschii) (UniProt Q58445). Briefly: native gel or EMSA.

B1: mjTFIIB K87-A (natural protein)
chain: MVWLMEALKTKENETTKEKKLTTKVEKSEKKEENVREEEIVCPICGSKEVVKDYERAEIVCAKCGCVIKEKLFDIGPEWRAFDHEQAIKRCRVGAPMTYSVDYNEPIIIKENGEIKVVKIGELIDKIIENSENIRREGILEIAKCKGIEVIAFNSNYKFKFMPVSEVSRHPVSEMFEIVVEGNKKVRVTRSHSVFTIRDNEVVPIRVDELKVGDILVLAKELPNIEEDIEIDKKFSKILGYIIAEGYYDDKKIVLSYDYNEKEFINETIDYFKSLNSDITIYSKDLNIQIEVKNKKIINLLKKLRVKNKRIPSIIFKSPYEIKKSFIDGIFNGKDAKVFVSKELAEDVIFLLLQIKENATINKKSINDIEVYEVRRITNIYTNRKLEKLINSDFIFLKIKEINKVEPTSGYAYDLTVPNAENFVAGFGGFVLHNTIHDKGLSTVIDWRNKDSYGKDLSANKRAQLYRLRKWQRRIRVSDAAERNLAFALSELDRITSKLGLPRHVRENAAIIYRGAVEKGLIRGRSIEGVVAAAIYAACRRCRVPRTLDEIAEASRVDRKEIGRTYRFLARELNIKLTPTNPIDYVPRFASELGLPGEVESKAIQILQQAAEKGLTSGRGPTGVAAAAIYIASVLLGCRRTQREVAEVAGVTEVTIRNRYKELTEHLDIDVTL
Regarding B1, the recruitment activity relative to wild type (% of wild type) turned out to be 140.
